Results: the Human Domainome abundance scans (Beltran et al. 2025)

B1: Tripartite motif-containing protein 44, residues 174 to 218; numbered along this chain, Q96DX7 (parent)
chain: VAKRKCPDHGLDLSTYCQEDRQLICVLCPVIGAHQGHQLSTLDEA

Variants of: B1
Test: abundance fitness (aPCA) (normalised: wild type 0, dead -1); higher = more abundant; growth selection in yeast, the domain comes from the species named
Settings: Homo sapiens

Abundance fitness: each site, then its substitutions
Q22: V -0.039, L -0.074, H -0.044, R -0.001, F -0.281, M 0.004, Y 0.02, D -0.014
G36: P -0.561, E -0.048, N -0.007, D -0.071, W -0.409, A -0.131, V -0.519, F -0.193, S -0.117, Y -0.363
I31: W -0.13, Y -0.077, M 0.016, F -0.11, P -0.306, H 0.029, Q 0.028, A 0.022, G -0.002, V 0.032, N 0.059, T 0.052
R21: D 0.071, Y 0.001, T -0.037, H 0.029, G 0.025
H9: C -0.103, P -1.15, T -0.919, Y -0.791, Q -0.964, G -0.91, I -0.891, M -0.901, W -1.03
G32: Y -0.743, E -0.355, I -0.757, F -0.871
T15: R -0.054, L -0.196, V -0.198, M -0.106
K3: T -0.013, I 0.032, C -0.379, R -0.073, D 0.024, Y -0.137, L -0.09, Q -0.038
L11: S -0.189, T -0.147, E 0.005, D -0.198, F -0.083, C -0.009, P -0.778
D43: F -0.157, C -0.042, Y -0.112, L -0.107, H -0.058, A -0.036, W -0.211, K -0.073, Q -0.035
A33: E -0.032, V -0.05, Y -0.094, C -0.048, N -0.014, I -0.031, D -0.068
H37: N -0.584, S -0.678, W -0.95, K -0.606
C28: D -0.557, H -0.994, W -1.14, N -0.759, T -0.982, F -0.791, R -1, E -0.704
G10: C -0.143, P -0.776, R -0.147, V -0.519, Y -0.125, L -0.116, M -0.078
K5: G -0.218, E -0.173, H -0.24, V -0.135, N -0.111, F -0.129, C -0.141, D -0.409, W -0.308
Q18: F -0.109, Y 0.08, D 0.009, H 0.035, K 0.037, N -0.01, G -0.111, L -0.061, M -0.01, E 0.008, P -0.038, V -0.086
L27: Y -0.059, S -0.024, R 0.024, G -0.25, T -0.212, W -0.216
Y16: H -0.053, G -0.373, A -0.266, R -0.043, C -0.132, K -0.059, F -0.069
V1: R -0.39, I 0.036, Q -0.159, E -0.049, D -0.112, C -0.029
Q35: H 0.008, A -0.054, R -0.1, S -0.063, N -0.092, C -0.089, K 0.002
L23: C -0.116, Q 0.058, G -0.001, M -0.004, W 0.001
H34: D -0.575, S -0.689, R -0.653, G -0.65, L -0.925, A -0.673, I -0.717, F -0.776
C17: Y -0.767, T -0.705, H -0.818, A -0.641, D -0.631, K -0.657, E -0.546, R -0.484, V -0.753
L39: R -0.011, H 0.011, E -0.021, F -0.026, S -0.021, N -0.043, W -0.035
A2: E 0.087, D 0.053, H 0.03, I 0.041, C 0.04, P -0.088, R -0.12, S 0.045, V -0.037
C6: M -1.04, P -1.07, K -0.874, Y -0.92, W -1.06, R -0.999, N -0.889
P29: A -0.097, H -0.016, L -0.117, I -0.168, R -0.054, W -0.207, Q -0.071, F -0.198, V -0.133, M -0.04
V30: T 0.051, C -0.073, M -0.008, S 0.005, L -0.076, Q 0.045, P -0.369, W -0.159
L42: Q 0.048, V 0.023, S 0.033, W -0.034, K 0.043, N 0.002
R4: W -0.162, C -0.248, H -0.198
S40: M -0.103, R -0.033, C -0.027, Q 0.012, V -0.083, W -0.177, F -0.108, H 0.022, I -0.079, D -0.032, N -0.118
E44: C -0.055, L -0.082, V -0.065, F -0.123, A 0.009, H 0.102, T 0.014, I -0.132, G -0.002, S -0.01
A45: V -0.022, Q 0.044, M -0.029, E -0.096, R -0.006, K -0.046, I 0.168
D8: S -0.03, Y 0.049, C -0.103, M 0.057, H 0.038, N -0.045, L 0.048, I 0.029, E 0.044, Q 0.028
T41: G 0.009, Q 0.011, M -0.065, D 0.016, A 0.024, E 0.02, V -0.038, N 0.009
C25: V -1.08, F -0.926, L -1.25, P -0.649, D -0.662, K -0.634, H -0.798
D20: A -0.585, T -0.217, F -0.914, L -0.656, Q -0.377, K -0.3, G -0.487
I24: T -0.052, D -0.427, E -0.457, S -0.31, N -0.407, H -0.312, V -0.051
P7: N -0.565, E -0.446, K -0.342, C -0.141, W -0.191, S -0.089, Y -0.226, Q 0.038, V -0.25
E19: G -0.093, N -0.033
V26: S 0.084, D 0.046, N 0.062, R 0.082, W -0.065
S14: N 0.094, D 0.006, Q -0.001, F -0.074, V 0.011, R -0.098, P -0.688, E 0.033
D12: K -0.082, N -0.072, Y -0.132, A -0.117, M -0.048, G -0.098, Q -0.116, E 0.003, I -0.016
Q38: W -0.255, N 0.029, M 0, A -0.032, F -0.079
L13: N -0.296, P -0.276, C -0.034, E -0.123, K -0.204, M -0.031, R -0.1, S -0.166
